This test relates to 20S proteasome (h20S). The test is described as follows: Microscale thermophoresis (MST) protein-proteasome interaction. The note with it: NT-647-labeled protein titrated with h20S 0.06-1965 nM; 22 °C; 20 mM Tris-HCl pH 7.2; three independent experiments; read-out: EC50 of binding to 20S proteasome (MST, Hill fit). It is filed as binding, human. The procedure:
Enolase, α-synuclein and their oxidized forms were labeled using Monolith Protein Labeling Kit RED-NHS 2nd Generation Amine Reactive, NT-647 (Nanotemper, München, Germany), according to the manufacturer instructions. The labeling process was carried out in 50 mM HEPES buffer, pH 7.4, in the protein:NT-647 1:2 ratio. The incubation time was 60 min for enolase and 30 min for α-synuclein, at 21 °C. After labeling, the excess of the fluorescent reagent was removed using the columns provided by the manufacturer and 20 mM Tris-HCl buffer, pH 7.2, containing 200 mM NaCl and 10% glycerol. The obtained labeled proteins were concentrated on Amicon 3K spin-columns (Merck, Darmstadt, Germany). Protein concentrations were determined by measuring absorbance at 280 nm, using UV/Vis spectrophotometer (DU®730 Beckman Coulter).
Direct interactions between the fluorescently labeled, native and oxidized, proteins and the 20S proteasome were examined using microscale thermophoresis (NanoTemper Monolith NT.115). The labeled protein concentration was kept constant at 250 nM for native and oxidized α-synuclein and 125 nM and 25 nM for native and oxidized enolase, respectively. […] The EC50 values were calculated based on results obtained in three independent experiments.
A general note: Microscale thermophoresis detects binding through changes in fluorescence in a small temperature gradient.

B1: oxidized enolase: human enolase 2 incubated with 0.5% H2O2 for 2 h at 30 °C (protein, UniProt P09104 2-434, looked up)
Gamma-enolase: SIEKIWAREILDSRGNPTVEVDLYTAKGLFRAAVPSGASTGIYEALELRDGDKQRYLGKGVLKAVDHINSTIAPALISSGLSVVEQEKLDNLMLELDGTENKSKFGANAILGVSLAVCKAGAAERELPLYRHIAQLAGNSDLILPVPAFNVINGGSHAGNKLAMQEFMILPVGAESFRDAMRLGAEVYHTLKGVIKDKYGKDATNVGDEGGFAPNILENSEALELVKEAIDKAGYTEKIVIGMDVAASEFYRDGKYDLDFKSPTDPSRYITGDQLGALYQDFVRDYPVVSIEDPFDQDDWAAWSKFTANVGIQIVGDDLTVTNPKRIERAVEEKACNCLLLKVNQIGSVTEAIQACKLAQENGWGVMVSHRSGETEDTFIADLVVGLCTGQIKTGAPCRSERLAKYNQLMRIEEELGDEARFAGHNFRNPSVL
modifications: H2O2-oxidized
notes: human enolase 2 incubated with 0.5% H2O2 for 2 h at 30 °C
For orientation: EC50 means the concentration at which the effect is half-maximal. Regarding B1, the EC50 amounted to 87.8 ± 12.9 nM.

For the origin of these results see PMC9221443, “Peptidomimetics Based on C-Terminus of Blm10 Stimulate Human 20S Proteasome Activity and Promote Degradation of Proteins” (Biomolecules, 2022).
